From the supplement of paper PMC9170038

Tests used:
[1] = test system: MS2 coat protein; experiment: apparent KD of MS2 coat protein, switch ON state; designed switch direction (-1 OFF switch, 1 ON switch): -1; higher = weaker reporter binding; details: FMN input: 0 or 200 uM; Eterna round: R93 (includes R88 designs)
In short: (§1)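 The designed RNA switches were transcribed on-chip from Illumina sequencing clusters. In 100 mM Tris-HCl pH 7.5, 80 mM KCl and 4 mM MgCl2, without or with constant ligand, they were titrated with SNAP-549-labelled MS2 coat protein from 0.7 or 1.5 nM to 3 µM in twofold steps. Apparent KD is the per-design median of normalised cluster binding-curve fits.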

[2] = test system: MS2 coat protein; experiment: apparent KD of MS2 coat protein, switch OFF state (with FMN for OFF switches, without FMN for ON switches); designed switch direction (-1 OFF switch, 1 ON switch): -1; higher = weaker reporter binding; details: FMN input: 0 or 200 uM; Eterna round: R93 (includes R88 designs)
In short: as §1

[3] = test system: MS2 coat protein; experiment: apparent KD of MS2 coat protein; higher = weaker reporter binding; details: Eterna round: R107
In short: as §1

[4] = input ligand: theophylline 20 uM
[5] = input ligand: theophylline 2 mM
[6] = input ligand: tryptophan 2.4 mM

Sequence	apparent KD of MS2 coat protein [1]	apparent KD of MS2 coat protein [2]	apparent KD of MS2 coat protein ([3]; input ligand: arginine 13.2 mM)	apparent KD of MS2 coat protein ([3]; input ligand: none)	apparent KD of MS2 coat protein [3, 4]	apparent KD of MS2 coat protein [3, 5]	apparent KD of MS2 coat protein [3, 6]
AAAAAACAUGAGGAUCACCCAUGUAAGGAUAUGCGAUGGAAAAUAAAAAUAAAACAUAGCAGAAGGUACACCAA [Amethyst 82]	29.4 nM	28.2 nM	–	–	–	–	–
AAAAAACAUGAGGAUCACCCAUGUAAGGAUAUGCUCAAGCGAAAAAGCACAAAAAAGAGCAGAAGGUACAAAAA [66%, Wbt, 41]	22.6 nM	31 nM	–	–	–	–	–
AAAAAACAUGAGGAUCACCCAUGUCAGGAUAUACAAAAAUAAAUAAAAAUAAAAUAAAGUAGAAGGGACAAAAA [May 9]	28.9 nM	36.9 nM	–	–	–	–	–
AAAAAACAUGAGGAUCACCCAUGUCAGGAUAUGCUCAGCAAAAAAAAAAAAAAGAACGGUAGAAGGGACAGAAA [Bilbo Confounded 22 - Jieux - Exclusion 1]	56.1 nM	50.7 nM	–	–	–	–	–
AAAAAACAUGAGGAUCACCCAUGUGAGGAUAUAGGAAAAAAAAAAAAAAAAAAAAAAACUAGAAGGCACAAAAA [Gess I got it^^]	35.2 nM	41.7 nM	–	–	–	–	–
AAAAAACAUGAGGAUCACCCAUGUGAGGAUAUCAAAUAAAGGCACAUGAGAAGGCAUAUGAGAAGGCACAUGAA [Meechl MS2 Ex1 2]	41.4 nM	–	–	–	–	–	–
AAAAAACAUGAGGAUCACCCAUGUGAGGAUAUCGAGAAGAAGAAGAAGAAGAAGAGAACGAGAAGGCACAAAAA [Exclusion 1 - G's]	25.8 nM	29.9 nM	–	–	–	–	–
AAAAAACAUGAGGAUCACCCAUGUGAGGAUAUGCAAAACCCAUAUAAAAAGGGAAAAAGCAGAAGGCGCAAAAA [Starry Exclusion 1.4 (wbt round 1 mod)]	26.5 nM	24.2 nM	–	–	–	–	–
AAAAAACAUGAGGAUCACCCAUGUGAGGAUAUGCAAAACCCAUAUAAAAAGGGAAAAAGUAGAAGGCACAAAAA [wbt round 1 mod 10]	24.1 nM	28.6 nM	–	–	–	–	–
AAAAAACAUGAGGAUCACCCAUGUGAGGAUAUGCAAAACUUAUAUAAAAAGGGAAAAAGUAGAAGGCACAAAAA [LROPPY Exclusion 1 - v09_water mod]	30.4 nM	39.2 nM	–	–	–	–	–
AAAAAACAUGAGGAUCACCCAUGUGAGGAUAUGCGAAAAAAAAAAUAAAAAAAAAAAAGCAGAAGGCACAAAAA [LROPPY Exclusion 1 - v05_deltaG=1.64]	37.6 nM	58.5 nM	–	–	–	–	–
AAAAAACAUGAGGAUCACCCAUGUGAGGAUAUGCGAAAAAAAAAAUAAAAAAAAAAAAGUAGAAGGCACACCAA [Mat - Exclusion 1 - Eli mod - D55]	41.9 nM	44.1 nM	–	–	–	–	–
AAAAAACAUGAGGAUCACCCAUGUGAGGAUAUGGAAAAAUAAGGACAGUAAAGAUAAACCAGAAGGCACAAAUA [JR_Exc001_Sub1101]	26.4 nM	24.1 nM	–	–	–	–	–
AAAAAACAUGAGGAUCACCCAUGUGAGGAUAUGUGAAAAAAAAAAUAAAAAAAAAAAAGCAGAAGGUACAAAAA [LROPPY Exclusion 1 - v03_deltaG=3.94]	43.7 nM	39.9 nM	–	–	–	–	–
AAAAACUGAGGAUAUACAUGAGGAUCACCCAUGUAAAAAAAAAAAAAGGGAAAAAAAAGUAGAAGGCAGAAAAA [Nebiriau II]	26.1 nM	41 nM	–	–	–	–	–
AAAAAGCGAGGAUAUACAUGAGGAUCACCCAUGUAAAAGGUCGCGGGAGGGAGGGAAGGUAGAAGGCGCAAAAA [Excls3-VI]	15.4 nM	14.1 nM	–	–	–	–	–
AAAAAGCGAGGAUAUACAUGAGGAUCACCCAUGUCAAACGGUAAGACCGCAGGAAACAGUAGAAGGCGCAAAAA [Exclusion3-03]	58.3 nM	91.1 nM	–	–	–	–	–
AAAAAGGCAGGAUAUACGAGUCAAAGAAAAGACAAAAGGAAACAUGAGGAUCACCCAUGUAGAAGGGCCAAAAA [Fiskers exclusion D2 62% 6]	28.2 nM	16.7 nM	–	–	–	–	–
AAAAAGGGAGGAUAUACAUGAGGAUCACCCAUGUAUCAGACGAAAAAGAGUCUGAAAAGUAGAAGGCCCAAAAA [65%, Moding Exclusion3-cac2, 6]	15.5 nM	20.8 nM	–	–	–	–	–
AAAAAGGGAGGAUAUACAUGAGGAUCACCCAUGUGAAAGACGAAAAAGAGUCUAAAGGGUAGAAGGCCCAAAAA [65%, Moding Exclusion3-cac2, 10]	51.1 nM	49.2 nM	–	–	–	–	–

Sequence	apparent KD of MS2 coat protein [1]	apparent KD of MS2 coat protein [2]	apparent KD of MS2 coat protein ([3]; input ligand: arginine 13.2 mM)	apparent KD of MS2 coat protein ([3]; input ligand: none)	apparent KD of MS2 coat protein [3, 4]	apparent KD of MS2 coat protein [3, 5]	apparent KD of MS2 coat protein [3, 6]
UGUUAUUUCCGAAGGAGCGGGAUACAUGAGGAUCACCCAUGUACAUGAGGAUCAACAUGAACCCAGGUAGGUCGCGGAUUUUGUC [Exclusion Arginine B 3]	–	–	34.1 nM	405 nM	300 nM	379 nM	228 nM
UGUUUGGUGCGCGAGUGUUGGAUGAUUGAUACCAGUGAAGAAGAGCGCCCUUGGCAGCGAAUCCUAACAUGAGGAUCACCCAUGU [5.V]	–	–	39.3 nM	–	57.7 nM	–	51.4 nM
UUAAUCAUGGAUGAAAACAUUUAUGCAGAAGGAGCGUGAUAAAACACAGGUAGGUCGCUGAAGGGAACAUGAGGAUCACCCAUGU [AstrosSSArgA#17]	–	–	35.9 nM	65.1 nM	74.5 nM	69.5 nM	41.3 nM
UUAGCACAUGAGGAUCACCCAUGUCUCGAUACCAGAUAAGUUCCGAUCCCUUGGCAGCGACAAGCUUGCAAACUGCGACUAUUCU [theeternabot_sameState_MS2_Theo_A_42]	–	–	22.2 nM	–	32.2 nM	–	24.8 nM
UUAGUAACGACGGCCGCCACUGGAUAUGAACAUGAGGAUCACCCAUGUAGAGAUCCUAGAAUAAACAGGACCGGGUCUGAUAAUA [Exclusion Tryptophane B GF 2]	–	–	17.9 nM	–	21.6 nM	17.3 nM	–
UUAUAAGUACCGGUCCUCAGAUCCUCAUGACGAGGACCGGUACGGCCGCCACUCGAAACAUGAGGAUCACCCAUGUAAUAAUAUU [Brourdmod07]	–	–	16 nM	–	25.3 nM	23.3 nM	–
UUAUUUAUAAUGGAUACCAGUAUAAUGGCCGCAAAUCCUGACAUGAGGAUCACCCAUGUAUGCCCUUGGCAGCUGUUAUGGGUUU [XTheo B #23]	–	–	34.7 nM	–	51.2 nM	–	38.7 nM
UUCAGCUAGUCGGCCGCCACUACAUGAGGAUCACCCAUGUAGGUCCACACUGCUUCGGCAGUGAGUAGGACCGGGACUAGCUGAG	–	–	7.07 nM	9.66 nM	15.2 nM	10.5 nM	15.4 nM
UUCAGCUAGUCGGCCGCCACUACUUGAGGAUCACCCAAGUAAUCCUAACACUGCUUCGGCAGUGGUAGGACCGGGACUAGCUGAG	–	–	8.78 nM	10.9 nM	12 nM	11.5 nM	15.1 nM
UUCUUUAAGUCGGCCGCCACUGAAACAUGAGGAUCACCCAUGUAUAUUUGUGUAAAGGUGGAUUACAGGACCGGGACUAUAGUAA [JR_Nu23_ExcTryptoB_Sub024]	–	–	12.1 nM	–	13.6 nM	11.7 nM	–
UUGUGGCGCUCGGCCGCCACUCCGACAUGAGGAUCACCCAUGUUCUACAUGAGGAUCACCCAUGUGAGGACCGGGAGACACAACC [Exclusion Tryptophan B GF12]	–	–	137 nM	126 nM	102 nM	134 nM	165 nM
UUGUUGUUUGGAAGGAGCGUGUAUGAUUAAGAACAUGAGGAUCACCCAUGUUGUAGGAUAGCACAGGUAGGUCGCCGGGUGGUGG [11.W]	–	–	18.8 nM	14.8 nM	22.5 nM	23.5 nM	14.6 nM
UUGUUGUUUGGAAGGAGCGUGUAUGAUUAAGAACAUGAGGAUCACCCAUGUUGUAGGGUAGCACAGGUAGGUCGCCGGGUGGUGG [11.V]	–	–	34.8 nM	25.1 nM	36.8 nM	31.2 nM	21.1 nM
UUUAAAAUAACAGAUACCAGCGUGUUAUAAAACAUGAGGAUCACCCAUGUAGUGAUCAAGCGCCCUUGGCAGCUGGUAUUUUAGG [7.E]	–	–	186 nM	–	161 nM	–	132 nM
UUUACAUGAGGAUCACCCAUGUGCCAUGAUACCAGACAUGAAAAUGUCCCUUGGCAGCAUGAAAGAUCCACGUCGGAAACGACGG [Krpole]	–	–	72.2 nM	–	248 nM	–	113 nM
UUUGAGAUAACAGAUACCAGCGUGUUAUAAAACAUGAGGAUCACCCAUGUAGUGAUCAAGCGCCCUUGGCAGCUGGUGUUUUAGG [7.H]	–	–	21.1 nM	102 nM	383 nM	469 nM	141 nM
UUUUACAUGAGGAUCACCCAUGUACAUGGGCGAGGACCGGUACGGCCGCCACUCGUGGGACCCACGGGCCCGCUUAGUGGGUACA [LarryB_001]	–	–	58.3 nM	87.5 nM	168 nM	189 nM	57.4 nM
UUUUACGCAAGUAAUUCCCGGGAACCGGAUACCAGCUCCUCCAACAGCCCUUGGCAGCCGACCACAUGAGGAUCACCCAUGUUUC [theeternabot_exclusion_MS2_Theo_A_28]	–	–	12 nM	–	16.1 nM	–	12.7 nM
UUUUAGCAUCGAAGGAGCGCUGGUAGGUGACACAUGAGGAUCACCCAUGUGCUCCUUGCCGAGCAGGUAGGUCGCGAUGCUAUUU [SSAB NP+V+V2 #8]	–	–	31.4 nM	52.6 nM	62.9 nM	73.3 nM	46.2 nM
UUUUUUAACUGAAGGAGCGUCACAUGAGGAUCACCCAUGUAUUAGAUGAGAAGGAUCUUGUGGCAGGUAGGUCGCAGAGGAAGGG [e-argB-V]	–	–	99.6 nM	389 nM	187 nM	181 nM	136 nM
